T1: HTRA3, P83110
T1 sequence (P83110 354-453, limits assumed, looked up): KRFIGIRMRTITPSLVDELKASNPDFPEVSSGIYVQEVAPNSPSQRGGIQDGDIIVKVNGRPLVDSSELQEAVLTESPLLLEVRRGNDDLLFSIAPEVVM

T2: SYNJ2BP, P57105
T2 sequence (P57105 8-110, limits assumed, looked up): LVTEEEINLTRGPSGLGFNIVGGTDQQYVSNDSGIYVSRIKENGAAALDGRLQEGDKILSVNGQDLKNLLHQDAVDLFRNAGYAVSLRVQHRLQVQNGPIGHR

T3: GRIP1_7, Q9Y3R0
T3 sequence (Q9Y3R0 999-1096, limits assumed, looked up): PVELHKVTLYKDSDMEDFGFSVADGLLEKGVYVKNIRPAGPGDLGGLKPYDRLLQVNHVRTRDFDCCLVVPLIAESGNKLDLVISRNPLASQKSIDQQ

T4: PDZD2_2, O15018
T4 sequence (O15018 329-429, limits assumed, looked up): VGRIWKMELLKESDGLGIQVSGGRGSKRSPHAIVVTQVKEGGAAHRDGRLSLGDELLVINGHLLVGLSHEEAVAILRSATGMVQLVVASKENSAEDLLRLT

T5: TX1BP3, O14907
T5 sequence (O14907 10-122, limits assumed, looked up): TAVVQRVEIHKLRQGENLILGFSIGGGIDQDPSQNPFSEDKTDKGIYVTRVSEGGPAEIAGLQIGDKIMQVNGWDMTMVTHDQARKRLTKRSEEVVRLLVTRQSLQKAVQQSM

T6: DFNB31_2, Q9P202
T6 sequence (Q9P202 274-371, limits assumed, looked up): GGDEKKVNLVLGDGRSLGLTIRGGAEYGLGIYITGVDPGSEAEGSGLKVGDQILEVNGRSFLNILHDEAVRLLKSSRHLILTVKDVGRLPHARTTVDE

T7: ARHGAP21, Q5T5U3
T7 sequence (Q5T5U3 45-169, limits assumed, looked up): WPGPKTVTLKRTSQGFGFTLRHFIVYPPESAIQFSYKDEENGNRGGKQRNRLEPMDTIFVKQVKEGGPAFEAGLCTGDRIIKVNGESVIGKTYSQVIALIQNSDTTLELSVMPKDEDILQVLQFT

T8: LIN7A, O14910
T8 sequence (O14910 103-200, limits assumed, looked up): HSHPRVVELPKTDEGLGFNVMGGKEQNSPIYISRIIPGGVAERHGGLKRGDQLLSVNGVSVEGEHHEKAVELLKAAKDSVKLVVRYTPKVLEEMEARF


Legend:
Test in all cases: holdup assay
Parameters in all cases: key: below the threshold = too weak to quantify, mostly under pKd 3.1 to 4
Conditions in all cases: plain residues with an end cap or a label only (N-terminal biotin on a linker: ado-ado)
FRMPD2_1, Q68DX3 = molecular target: FRMPD2_1, Q68DX3
Chain of FRMPD2_1, Q68DX3 (Q68DX3 770-861): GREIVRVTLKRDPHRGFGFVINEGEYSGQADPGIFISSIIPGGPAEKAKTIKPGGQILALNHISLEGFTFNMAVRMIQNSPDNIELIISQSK

HTRA3, P83110 = molecular target: T1, HTRA3, P83110
DLG4_3, P78352 = molecular target: DLG4_3, P78352
Chain of DLG4_3, P78352 (P78352 306-403): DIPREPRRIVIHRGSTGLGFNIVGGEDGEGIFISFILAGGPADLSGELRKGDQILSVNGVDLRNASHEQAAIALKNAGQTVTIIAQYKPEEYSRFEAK

GORASP1, Q9BQQ3 = molecular target: GORASP1, Q9BQQ3
Chain of GORASP1, Q9BQQ3 (Q9BQQ3 1-208): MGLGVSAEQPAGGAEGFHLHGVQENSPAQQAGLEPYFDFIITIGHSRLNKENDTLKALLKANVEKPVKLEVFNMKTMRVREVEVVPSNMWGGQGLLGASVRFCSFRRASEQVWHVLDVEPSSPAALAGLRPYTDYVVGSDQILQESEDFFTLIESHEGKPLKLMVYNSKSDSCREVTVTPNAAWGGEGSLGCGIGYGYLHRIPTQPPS

Inadl_2, Q8NI35 = molecular target: Inadl_2, Q8NI35
Chain of Inadl_2, Q8NI35 (Q8NI35 238-335): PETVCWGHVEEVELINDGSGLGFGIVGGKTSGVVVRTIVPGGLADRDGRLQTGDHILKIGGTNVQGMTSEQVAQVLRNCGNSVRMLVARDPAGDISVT

MAGI2_3, Q86UL8 = molecular target: MAGI2_3, Q86UL8
Chain of MAGI2_3, Q86UL8 (Q86UL8 600-682): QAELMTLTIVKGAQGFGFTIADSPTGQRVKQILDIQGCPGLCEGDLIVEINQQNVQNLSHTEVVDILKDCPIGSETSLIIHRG

TJP1_2, Q07157 = molecular target: TJP1_2, Q07157
Chain of TJP1_2, Q07157 (Q07157 181-274): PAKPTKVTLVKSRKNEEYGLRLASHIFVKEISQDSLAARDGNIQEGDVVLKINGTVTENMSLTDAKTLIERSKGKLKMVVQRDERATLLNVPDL

SYNJ2BP, P57105 = molecular target: T2, SYNJ2BP, P57105
Inadl_5, Q8NI35 = molecular target: Inadl_5, Q8NI35
Chain of Inadl_5, Q8NI35 (Q8NI35 673-780): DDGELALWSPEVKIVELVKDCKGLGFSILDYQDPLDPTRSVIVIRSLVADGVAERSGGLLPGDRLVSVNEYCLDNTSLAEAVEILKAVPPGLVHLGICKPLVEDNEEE

MAGI2_5, Q86UL8 = molecular target: MAGI2_5, Q86UL8
Chain of MAGI2_5, Q86UL8 (Q86UL8 915-1017): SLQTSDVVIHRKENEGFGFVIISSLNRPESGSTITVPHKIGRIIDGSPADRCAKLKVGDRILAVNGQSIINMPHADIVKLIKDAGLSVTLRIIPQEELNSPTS

GRIP1_7, Q9Y3R0 = molecular target: T3, GRIP1_7, Q9Y3R0
MAGI3_2, Q5TCQ9 = molecular target: MAGI3_2, Q5TCQ9
Chain of MAGI3_2, Q5TCQ9 (Q5TCQ9 398-503): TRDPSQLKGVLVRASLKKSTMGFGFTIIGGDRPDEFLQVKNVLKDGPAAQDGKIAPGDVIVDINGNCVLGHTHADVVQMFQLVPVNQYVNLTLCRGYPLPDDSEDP

PDZD2_2, O15018 = molecular target: T4, PDZD2_2, O15018
TX1BP3, O14907 = molecular target: T5, TX1BP3, O14907
PICK1, Q9NRD5 = molecular target: PICK1, Q9NRD5
Chain of PICK1, Q9NRD5 (Q9NRD5 17-115): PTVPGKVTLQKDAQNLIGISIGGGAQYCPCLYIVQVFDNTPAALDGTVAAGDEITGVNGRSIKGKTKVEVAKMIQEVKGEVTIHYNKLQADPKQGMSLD

DLG2_2, Q15700 = molecular target: DLG2_2, Q15700
Chain of DLG2_2, Q15700 (Q15700 189-283): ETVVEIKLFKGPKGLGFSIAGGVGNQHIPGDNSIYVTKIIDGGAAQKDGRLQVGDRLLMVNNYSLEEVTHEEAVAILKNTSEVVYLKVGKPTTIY

GRIP2_3, Q9C0E4 = molecular target: GRIP2_3, Q9C0E4
Chain of GRIP2_3, Q9C0E4 (Q9C0E4 238-339): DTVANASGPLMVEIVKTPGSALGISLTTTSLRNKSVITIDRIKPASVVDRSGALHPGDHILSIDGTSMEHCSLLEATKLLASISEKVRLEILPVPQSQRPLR

LNX1_2, Q8TBB1 = molecular target: LNX1_2, Q8TBB1
Chain of LNX1_2, Q8TBB1 (Q8TBB1 371-470): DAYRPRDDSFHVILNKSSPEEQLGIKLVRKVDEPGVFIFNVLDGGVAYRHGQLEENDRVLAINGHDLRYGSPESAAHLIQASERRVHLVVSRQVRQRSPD

DLG5_1, Q8TDM6 = molecular target: DLG5_1, Q8TDM6
Chain of DLG5_1, Q8TDM6 (Q8TDM6 617-713): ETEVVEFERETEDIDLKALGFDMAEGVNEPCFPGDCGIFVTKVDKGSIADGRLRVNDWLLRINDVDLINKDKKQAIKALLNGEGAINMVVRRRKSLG

DFNB31_2, Q9P202 = molecular target: T6, DFNB31_2, Q9P202
FRMPD4, Q14CM0 = molecular target: FRMPD4, Q14CM0
Chain of FRMPD4, Q14CM0 (Q14CM0 67-160): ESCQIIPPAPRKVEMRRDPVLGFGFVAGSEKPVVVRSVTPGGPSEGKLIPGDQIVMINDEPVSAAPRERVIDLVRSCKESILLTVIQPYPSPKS

Inadl_8, Q8NI35 = molecular target: Inadl_8, Q8NI35
Chain of Inadl_8, Q8NI35 (Q8NI35 1425-1530): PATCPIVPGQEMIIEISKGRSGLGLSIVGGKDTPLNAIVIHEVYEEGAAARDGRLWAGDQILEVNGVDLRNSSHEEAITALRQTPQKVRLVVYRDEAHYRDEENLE

Inadl_10, Q8NI35 = molecular target: Inadl_10, Q8NI35
Chain of Inadl_10, Q8NI35 (Q8NI35 1673-1763): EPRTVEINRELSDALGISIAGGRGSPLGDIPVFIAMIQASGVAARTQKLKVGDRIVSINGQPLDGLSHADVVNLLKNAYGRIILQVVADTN

ARHGAP21, Q5T5U3 = molecular target: T7, ARHGAP21, Q5T5U3
IL16_3, Q14005 = molecular target: IL16_3, Q14005
Chain of IL16_3, Q14005 (Q14005 1107-1207): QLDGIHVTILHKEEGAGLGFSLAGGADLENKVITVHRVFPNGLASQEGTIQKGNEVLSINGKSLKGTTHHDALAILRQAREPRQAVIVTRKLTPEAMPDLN

HTRA1, Q92743 = molecular target: HTRA1, Q92743
Chain of HTRA1, Q92743 (Q92743 360-477): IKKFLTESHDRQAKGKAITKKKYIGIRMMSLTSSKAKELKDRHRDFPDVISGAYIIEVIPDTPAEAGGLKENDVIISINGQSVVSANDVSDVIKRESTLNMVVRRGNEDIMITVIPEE

LIN7A, O14910 = molecular target: T8, LIN7A, O14910
SCRIB_2, Q14160 = molecular target: SCRIB_2, Q14160
Chain of SCRIB_2, Q14160 (Q14160 857-960): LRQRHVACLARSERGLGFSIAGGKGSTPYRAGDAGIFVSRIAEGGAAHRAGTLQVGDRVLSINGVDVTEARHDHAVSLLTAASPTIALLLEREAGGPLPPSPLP

GRID2IP_2, A4D2P6 = molecular target: GRID2IP_2, A4D2P6
Chain of GRID2IP_2, A4D2P6 (A4D2P6 272-370): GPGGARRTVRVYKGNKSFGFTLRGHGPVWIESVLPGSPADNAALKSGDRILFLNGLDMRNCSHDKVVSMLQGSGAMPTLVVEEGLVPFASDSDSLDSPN

pKd (FRMPD2_1, Q68DX3)	pKd (HTRA3, P83110)	pKd (DLG4_3, P78352)	pKd (GORASP1, Q9BQQ3)	pKd (Inadl_2, Q8NI35)	pKd (MAGI2_3, Q86UL8)	pKd (TJP1_2, Q07157)	pKd (SYNJ2BP, P57105)	pKd (Inadl_5, Q8NI35)	pKd (MAGI2_5, Q86UL8)	pKd (GRIP1_7, Q9Y3R0)	pKd (MAGI3_2, Q5TCQ9)	pKd (PDZD2_2, O15018)	pKd (TX1BP3, O14907)	pKd (PICK1, Q9NRD5)	pKd (DLG2_2, Q15700)	pKd (GRIP2_3, Q9C0E4)	pKd (LNX1_2, Q8TBB1)	pKd (DLG5_1, Q8TDM6)	pKd (DFNB31_2, Q9P202)	Binder	other results
below the threshold	3.91	below the threshold	below the threshold	below the threshold	below the threshold	4.03	below the threshold	below the threshold	below the threshold	below the threshold	4.39	4	below the threshold	below the threshold	below the threshold	below the threshold	below the threshold	below the threshold	below the threshold	ETSLVKGIDI [DENND5A, Q6IQ26]	pKd (FRMPD4, Q14CM0): below the threshold; pKd (Inadl_8, Q8NI35): below the threshold; pKd (Inadl_10, Q8NI35): below the threshold; pKd (ARHGAP21, Q5T5U3): 4.25; pKd (IL16_3, Q14005): below the threshold; pKd (HTRA1, Q92743): 3.6; pKd (LIN7A, O14910): below the threshold; pKd (SCRIB_2, Q14160): below the threshold; pKd (GRID2IP_2, A4D2P6): below the threshold
below the threshold	below the threshold	below the threshold	below the threshold	below the threshold	below the threshold	3.59	below the threshold	below the threshold	below the threshold	below the threshold	below the threshold	below the threshold	below the threshold	below the threshold	below the threshold	below the threshold	below the threshold	below the threshold	below the threshold	NVYGTESVKI [GRIA3, P42263]	pKd (FRMPD4, Q14CM0): below the threshold; pKd (Inadl_8, Q8NI35): below the threshold; pKd (Inadl_10, Q8NI35): below the threshold; pKd (ARHGAP21, Q5T5U3): 4.38; pKd (IL16_3, Q14005): below the threshold; pKd (HTRA1, Q92743): 3.98; pKd (LIN7A, O14910): below the threshold; pKd (SCRIB_2, Q14160): below the threshold; pKd (GRID2IP_2, A4D2P6): below the threshold
below the threshold	4.51	4.33	4.86	4.61	4.99	3.62	4.44	4.34	3.75	below the threshold	5.49	4.7	4.88	4.17	4.73	below the threshold	4.06	below the threshold	below the threshold	NASRTRITFV [MCM7, P33993]	pKd (FRMPD4, Q14CM0): below the threshold; pKd (Inadl_8, Q8NI35): 5.05; pKd (Inadl_10, Q8NI35): below the threshold; pKd (ARHGAP21, Q5T5U3): below the threshold; pKd (IL16_3, Q14005): below the threshold; pKd (HTRA1, Q92743): 4.99; pKd (LIN7A, O14910): below the threshold; pKd (SCRIB_2, Q14160): below the threshold; pKd (GRID2IP_2, A4D2P6): 4.97
below the threshold	below the threshold	below the threshold	below the threshold	below the threshold	3.48	below the threshold	below the threshold	below the threshold	below the threshold	below the threshold	below the threshold	below the threshold	4.11	4.08	below the threshold	below the threshold	below the threshold	below the threshold	below the threshold	ANGLMQTSKL [SSTR5, P35346]	pKd (FRMPD4, Q14CM0): 3.69; pKd (Inadl_8, Q8NI35): below the threshold; pKd (Inadl_10, Q8NI35): below the threshold; pKd (ARHGAP21, Q5T5U3): 3.97; pKd (IL16_3, Q14005): below the threshold; pKd (HTRA1, Q92743): below the threshold; pKd (LIN7A, O14910): below the threshold; pKd (SCRIB_2, Q14160): below the threshold; pKd (GRID2IP_2, A4D2P6): 4.48
3.79	3.53	below the threshold	4.75	below the threshold	below the threshold	below the threshold	below the threshold	below the threshold	below the threshold	3.67	below the threshold	3.67	below the threshold	below the threshold	below the threshold	below the threshold	3.74	below the threshold	below the threshold	QSPPNIYYKV [EFNB3, Q15768]	pKd (FRMPD4, Q14CM0): 4.01; pKd (Inadl_8, Q8NI35): below the threshold; pKd (Inadl_10, Q8NI35): below the threshold; pKd (ARHGAP21, Q5T5U3): below the threshold; pKd (IL16_3, Q14005): below the threshold; pKd (HTRA1, Q92743): 4.49; pKd (LIN7A, O14910): below the threshold; pKd (SCRIB_2, Q14160): below the threshold; pKd (GRID2IP_2, A4D2P6): below the threshold
